Experimental findings from publication PMC9976900 (Nucleic Acids Research, 2022) are described below.

One assay deals with T1, Unr CSD78 (A756-K922) (Drosophila, UniProt B7Z0E2 756-922).
T1 sequence (looked up): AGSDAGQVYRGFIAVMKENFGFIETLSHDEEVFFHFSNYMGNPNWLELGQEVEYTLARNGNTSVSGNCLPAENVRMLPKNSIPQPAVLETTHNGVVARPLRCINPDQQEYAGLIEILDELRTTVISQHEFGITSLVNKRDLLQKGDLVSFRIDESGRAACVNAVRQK
In words: NMR titration.

The next assay addresses T2, Unr CSD789 (A756-D990) (Drosophila, UniProt B7Z0E2 756-990).
T2 sequence (looked up): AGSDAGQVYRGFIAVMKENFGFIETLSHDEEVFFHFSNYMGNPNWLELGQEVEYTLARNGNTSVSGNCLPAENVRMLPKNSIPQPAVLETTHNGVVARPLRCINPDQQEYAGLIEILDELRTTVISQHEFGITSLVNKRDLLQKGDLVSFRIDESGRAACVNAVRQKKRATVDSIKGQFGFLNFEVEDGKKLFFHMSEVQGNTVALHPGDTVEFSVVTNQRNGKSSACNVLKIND
Kind of assay: NMR titration.

B1: pAbp RRM3 (G176-A263) (domain or fragment)
chain: not shown
For B1, the binding result in the assay with Unr CSD78 (A756-K922) and with Unr CSD789 (A756-D990) was “binds” each time.
